The values that follow come from publication PMC12646051.

In assay [1] the target is T1, human β2 (hβ2) (human) (UniProt Q9Y691).
T1 sequence: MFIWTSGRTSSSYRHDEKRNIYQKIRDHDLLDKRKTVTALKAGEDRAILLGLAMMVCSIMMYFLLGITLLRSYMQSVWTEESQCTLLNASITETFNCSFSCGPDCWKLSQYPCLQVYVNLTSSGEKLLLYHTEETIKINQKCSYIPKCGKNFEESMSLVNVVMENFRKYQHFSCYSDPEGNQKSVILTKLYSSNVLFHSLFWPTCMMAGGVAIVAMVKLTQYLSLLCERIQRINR

Assay [2] addresses T1, human β2 (hβ2) (human). This is another data set of the same source.
Assay [3] has as its target mouse Slo1 (mSlo1) α-subunit (mouse) (UniProt Q08460).
Assay [4] concerns the target hSlo1EM-TS (modified human Slo1 BK α subunit with a C-terminal twin-strep tag) (human) (UniProt Q12791). The assay is described as follows: pull-down + SEC; as a3 but plasmid weight ratio 1:0.2:1.8 (TR2).
Assay [5] addresses β3-Gρ (full-length human BK β3a subunit with C-terminal eGFP-ρ1D4) (human). In words: pull-down + SEC; plasmid weight ratio 1:0.2:1.8 (TR2).
The target is the same in assay [6]. In words: pull-down + SEC; TR1 (1:1:1); three-step affinity purification: streptactin XT (Slo1), then anti-FLAG M2 resin (β2) and anti-ρ1D4 resin (β3) one after the other, in either order; eluates, input and flow-through read by dual-colour FSEC.
Assay [7] concerns the target hSlo1EM-TS (modified human Slo1 BK α subunit with a C-terminal twin-strep tag) (human) (UniProt Q12791). The description is as above.
Assay [8] shares this target. In words: pull-down + SEC; as a1 but plasmid weight ratio 1:0.2:1.8 (TR2).
Assay [9] has the same target. The assay is described as follows: pull-down + SEC; HEK293F co-transfected with hSlo1EM-TS, β2-RF and β3-Gρ at plasmid weight ratio 1:1:1 (TR1); digitonin extract; Slo1 held on streptactin XT resin, eluted with 50 mM biotin; eluate read by dual-colour FSEC (Superose 6 Increase; eGFP and mCherry).

Chain of hSlo1EM-TS (modified human Slo1 BK α subunit with a C-terminal twin-strep tag) (human) (Q12791 whole entry): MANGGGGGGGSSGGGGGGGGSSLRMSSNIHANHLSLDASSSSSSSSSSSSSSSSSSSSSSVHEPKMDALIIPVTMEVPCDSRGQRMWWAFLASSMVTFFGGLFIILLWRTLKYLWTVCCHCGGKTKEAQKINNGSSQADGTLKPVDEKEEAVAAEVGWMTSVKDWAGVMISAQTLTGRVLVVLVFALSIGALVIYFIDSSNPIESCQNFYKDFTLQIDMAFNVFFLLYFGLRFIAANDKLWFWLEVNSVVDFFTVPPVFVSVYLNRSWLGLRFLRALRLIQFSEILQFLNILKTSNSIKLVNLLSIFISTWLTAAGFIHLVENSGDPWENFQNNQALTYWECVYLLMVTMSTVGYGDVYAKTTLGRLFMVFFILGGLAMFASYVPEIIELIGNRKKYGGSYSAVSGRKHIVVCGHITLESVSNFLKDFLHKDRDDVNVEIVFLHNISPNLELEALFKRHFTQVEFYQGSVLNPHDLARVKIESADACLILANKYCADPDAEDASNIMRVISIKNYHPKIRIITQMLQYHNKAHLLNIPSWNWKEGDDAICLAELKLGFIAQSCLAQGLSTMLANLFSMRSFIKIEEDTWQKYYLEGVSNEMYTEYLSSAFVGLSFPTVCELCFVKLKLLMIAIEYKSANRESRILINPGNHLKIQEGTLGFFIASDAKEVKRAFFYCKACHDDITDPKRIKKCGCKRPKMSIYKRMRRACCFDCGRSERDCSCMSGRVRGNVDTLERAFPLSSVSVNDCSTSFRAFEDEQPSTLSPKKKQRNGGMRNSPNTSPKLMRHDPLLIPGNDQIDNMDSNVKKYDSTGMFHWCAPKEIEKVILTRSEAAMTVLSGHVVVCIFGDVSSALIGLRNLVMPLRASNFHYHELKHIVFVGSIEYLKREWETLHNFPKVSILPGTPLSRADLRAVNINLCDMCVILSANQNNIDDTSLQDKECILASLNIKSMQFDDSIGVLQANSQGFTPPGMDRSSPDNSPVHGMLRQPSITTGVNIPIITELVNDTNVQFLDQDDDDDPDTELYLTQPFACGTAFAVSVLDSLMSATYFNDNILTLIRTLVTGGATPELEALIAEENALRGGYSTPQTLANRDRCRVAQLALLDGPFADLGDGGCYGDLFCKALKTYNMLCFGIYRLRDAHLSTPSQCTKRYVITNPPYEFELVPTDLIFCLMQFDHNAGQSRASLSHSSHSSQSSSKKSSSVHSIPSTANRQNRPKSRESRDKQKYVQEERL
Chain of mouse Slo1 (mSlo1) α-subunit (mouse) (Q08460 whole entry): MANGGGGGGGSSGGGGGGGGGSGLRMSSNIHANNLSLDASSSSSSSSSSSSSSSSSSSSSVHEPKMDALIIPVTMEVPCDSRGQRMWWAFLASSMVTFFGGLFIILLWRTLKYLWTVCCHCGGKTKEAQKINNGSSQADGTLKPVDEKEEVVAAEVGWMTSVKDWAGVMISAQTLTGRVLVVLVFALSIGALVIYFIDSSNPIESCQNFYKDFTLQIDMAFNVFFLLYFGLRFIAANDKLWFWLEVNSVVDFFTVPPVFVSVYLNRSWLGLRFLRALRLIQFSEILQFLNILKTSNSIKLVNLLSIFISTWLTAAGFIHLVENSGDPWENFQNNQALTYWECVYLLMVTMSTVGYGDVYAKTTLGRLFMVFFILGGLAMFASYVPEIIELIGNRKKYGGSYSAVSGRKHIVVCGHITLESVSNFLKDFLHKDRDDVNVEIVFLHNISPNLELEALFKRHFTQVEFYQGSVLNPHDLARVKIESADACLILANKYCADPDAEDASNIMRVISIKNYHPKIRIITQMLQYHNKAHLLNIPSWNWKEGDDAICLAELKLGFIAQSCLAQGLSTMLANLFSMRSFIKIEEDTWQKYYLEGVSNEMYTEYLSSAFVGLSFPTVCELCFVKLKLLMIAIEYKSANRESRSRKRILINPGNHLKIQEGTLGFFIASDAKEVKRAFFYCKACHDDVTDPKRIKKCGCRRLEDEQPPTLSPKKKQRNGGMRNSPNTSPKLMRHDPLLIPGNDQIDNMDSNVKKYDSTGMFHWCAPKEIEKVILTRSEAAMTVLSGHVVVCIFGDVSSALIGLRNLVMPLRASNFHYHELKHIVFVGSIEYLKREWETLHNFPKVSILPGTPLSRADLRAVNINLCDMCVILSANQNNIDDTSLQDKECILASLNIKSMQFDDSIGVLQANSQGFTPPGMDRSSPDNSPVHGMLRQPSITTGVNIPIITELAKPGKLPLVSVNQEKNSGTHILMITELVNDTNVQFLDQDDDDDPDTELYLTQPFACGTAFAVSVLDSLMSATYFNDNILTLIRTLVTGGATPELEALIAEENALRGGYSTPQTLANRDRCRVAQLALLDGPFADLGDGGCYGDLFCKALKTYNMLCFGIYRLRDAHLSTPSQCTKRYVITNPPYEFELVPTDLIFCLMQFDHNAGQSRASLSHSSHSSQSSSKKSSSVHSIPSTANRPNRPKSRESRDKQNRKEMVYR

B1: mouse β3a (mβ3a) (natural protein)
chain: MQPFSIPVQITLQGGRRRQGRTALPASGKINGDPLKVHPKLPSSAGEDRAMLLGVAMMASSVLMFFLLGTTVLKPFMLRSPREESNCTTVHTHIVDDGLDFSFTCEGSCQDHGRSPCLQVFVNLSHSGQKVLLHYDDEAIRTNPKCFYTPKCHGDRDDLLNSVLDIKEFFDHNNGTFPCFYSPDGPLGVVLRKSGHKVVFHCLFWPLLTLLGGALIVGLVRLTQHLSFQCEQYSTVVRA
For the molecule B1, the global fit of the trypsin digestion time courses of BK currents (mSlo1 with β2:β3a injection ratios 1:4 to 1:24, β2 alone, β3a alone): random mixing model against segregated model (fold lower sum of squares) with human β2 (hβ2) (human) [1] came out at 2.5. Also, the single-channel recordings from oocytes with BK α and 1:8 β2:β3a: of 16 patches with β3a-type tail openings, those that also show β2-like recovery from inactivation without reopening (of 16 patches) with human β2 (hβ2) (human) [2] stood at 14. The same molecule showed a time course of trypsin removal of inactivation of α+β3a currents in excised oocyte patches, described by I(t)=(1-exp(-t/τ))^4; β subunits per channel (β subunits per channel) in assay [3] of 4.

B2: human β2 (hβ2) (natural protein)
chain: MFIWTSGRTSSSYRHDEKRNIYQKIRDHDLLDKRKTVTALKAGEDRAILLGLAMMVCSIMMYFLLGITLLRSYMQSVWTEESQCTLLNASITETFNCSFSCGPDCWKLSQYPCLQVYVNLTSSGEKLLLYHTEETIKINQKCSYIPKCGKNFEESMSLVNVVMENFRKYQHFSCYSDPEGNQKSVILTKLYSSNVLFHSLFWPTCMMAGGVAIVAMVKLTQYLSLLCERIQRINR
In assay [3], B2 displayed a time course of trypsin removal of inactivation of α+β2 currents in excised oocyte patches, described by I(t)=(1-exp(-t/τ))^4; β subunits per channel (β subunits per channel) of 4.

B3: β2-RF (full-length human BK β2 subunit with C-terminal mCherry-FLAG) (natural protein)
chain: MFIWTSGRTSSSYRHDEKRNIYQKIRDHDLLDKRKTVTALKAGEDRAILLGLAMMVCSIMMYFLLGITLLRSYMQSVWTEESQCTLLNASITETFNCSFSCGPDCWKLSQYPCLQVYVNLTSSGEKLLLYHTEETIKINQKCSYIPKCGKNFEESMSLVNVVMENFRKYQHFSCYSDPEGNQKSVILTKLYSSNVLFHSLFWPTCMMAGGVAIVAMVKLTQYLSLLCERIQRINR
As for B3, the stoichiometry N (β2 per 4 Slo1) in assay [4] is 1.9; in assay [7], 2.8. Also, the percent of Slo1–β3 complexes that are ternary (hold β2 too) stood at 37% in [5] and 49% in assay [6]. The values for the molar ratio of β2-RF to β3-Gρ affiliated with Slo1 in [8] and in assay [9] were 1.08 mol/mol and 7.32 mol/mol, respectively.
